Laboratory results from patent publication US20250011363A1, “OPTIMIZED SHORTENED PEPTIDE THAT BINDS TO ACETYLCHOLINE RECEPTOR, AND USE THEREOF” (SKINMED CO., LTD., priority 2021, published 2025).

Each substance was assayed against acetylcholine receptor (Homo sapiens, UniProt P02708) (assay: SPR binding affinity (RU) of optimized 5mer/6mer/7mer peptides, Examples 6-7). Conditions: SPR, Resonance Units; 5mer Bottom sequence (bottom combinations); peptides tested at 10 μM.
Sequence of acetylcholine receptor (P02708 21-457): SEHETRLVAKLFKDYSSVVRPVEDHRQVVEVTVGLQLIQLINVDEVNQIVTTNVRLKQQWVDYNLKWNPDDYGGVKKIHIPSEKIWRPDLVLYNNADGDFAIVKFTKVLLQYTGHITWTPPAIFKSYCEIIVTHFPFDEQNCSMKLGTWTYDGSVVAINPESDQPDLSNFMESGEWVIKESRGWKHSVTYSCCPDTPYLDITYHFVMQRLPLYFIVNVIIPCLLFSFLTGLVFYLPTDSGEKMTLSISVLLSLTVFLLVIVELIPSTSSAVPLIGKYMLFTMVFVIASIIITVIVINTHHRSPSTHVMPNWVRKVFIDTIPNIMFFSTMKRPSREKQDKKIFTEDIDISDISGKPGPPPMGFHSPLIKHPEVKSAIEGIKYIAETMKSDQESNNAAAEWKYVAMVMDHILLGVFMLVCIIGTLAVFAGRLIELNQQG
Method: Based on the frequencies of occurrence of the top 7 amino acids from Table 7 in Example 5, 600 peptides comprising these amino acids (top combinations) and those comprising the 13 less frequently occurring amino acids (bottom combinations) were synthesized for each series of 5mer, 6mer-1, and 6mer-2. The binding affinity of each sequence for the acetylcholine receptor was measured using Surface Plasmon Resonance (SPR) analysis method. The peptides were tested at a concentration of 10 μM. Additionally, the average binding affinities of the top and bottom combinations in each series are depicted in FIGS. 5-7.
Representative peptides identified in Example 6, two in each library, including 5mers (73, 311) and 6mers-1 (43, 210) and 6mers-2 (136, 233), were compared with the pre-optimized 6mer, 5mer-ND, and Synake.
Substance 5mer-1042 (RCCAK) has a Binding affinity of 28 Ru. 5mer-1043 (KFEMK) was tested, and the Binding affinity was 15 Ru. With 5mer-1044 (RDCFK) the Binding affinity was 22 Ru. 5mer-1045 (KMDEK) gave a Binding affinity of 22 Ru. 5mer-1046 (KHTMR) was tested, and the Binding affinity was 19 Ru. 5mer-1047 (KAHMR) gave a Binding affinity of 23 Ru. In the case of 5mer-1048 (KYDNK), the Binding affinity is reported as 12 Ru. 5mer-1049 (KPPGR) showed a Binding affinity of 29 Ru. Substance 5mer-1050 (KPEDR) has a Binding affinity of 31 Ru. 5mer-1051 (RYAHR) gave a Binding affinity of 28 Ru. Substance 5mer-1052 (RNDWR) has a Binding affinity of 17 Ru. For 5mer-1053 (KHEHK), the Binding affinity was 27 Ru. For 5mer-1054 (RNKVR), the Binding affinity was 21 Ru. In the case of 5mer-1055 (KHHEK), the Binding affinity is reported as 15 Ru. 5mer-1056 (RCTPK) showed a Binding affinity of 11 Ru. 5mer-1057 (RFDPK) showed a Binding affinity of 13 Ru. Substance 5mer-1058 (KIPWR) has a Binding affinity of 25 Ru. With 5mer-1059 (RMAGR) the Binding affinity was 29 Ru. Work on 5mer-1060 (KTHIK) yielded a Binding affinity of 29 Ru. With 5mer-1061 (KDSFR) the Binding affinity was 24 Ru. 5mer-1062 (RAPWR) showed a Binding affinity of 24 Ru. 5mer-1063 (RPHVK) showed a Binding affinity of 20 Ru. 5mer-1064 (KCMKR) was tested, and the Binding affinity was 20 Ru. In the case of 5mer-1065 (KNPIR), the Binding affinity is reported as 18 Ru. For 5mer-1066 (RFWVK), the Binding affinity was 25 Ru. 5mer-1067 (KHENK) showed a Binding affinity of 23 Ru. Substance 5mer-1068 (RMHKK) has a Binding affinity of 11 Ru. 5mer-1069 (RPSFK) gave a Binding affinity of 31 Ru. In the case of 5mer-1070 (RETGK), the Binding affinity is reported as 26 Ru. For 5mer-1071 (RYEGR), the Binding affinity was 16 Ru. For 5mer-1072 (KDWPK), the Binding affinity was 32 Ru. 5mer-1073 (RDEAK) gave a Binding affinity of 29 Ru. With 5mer-1074 (RPCPR) the Binding affinity was 17 Ru. For 5mer-1075 (RKHIK), the Binding affinity was 26 Ru. For 5mer-1076 (KFEKK), the Binding affinity was 21 Ru. For 5mer-1077 (KADMK), the Binding affinity was 12 Ru. Substance 5mer-1078 (KEAWK) has a Binding affinity of 19 Ru. Work on 5mer-1079 (KYTGR) yielded a Binding affinity of 31 Ru. With 5mer-1080 (RYTHK) the Binding affinity was 25 Ru. In the case of 5mer-1081 (RPNVR), the Binding affinity is reported as 13 Ru. Substance 5mer-1082 (RACFR) has a Binding affinity of 11 Ru. With 5mer-1083 (KFSVR) the Binding affinity was 31 Ru. Substance 5mer-1084 (RTHDR) has a Binding affinity of 21 Ru. 5mer-1085 (RTTER) showed a Binding affinity of 14 Ru. With 5mer-1086 (RIWDR) the Binding affinity was 19 Ru. In the case of 5mer-1087 (KKKKR), the Binding affinity is reported as 11 Ru. Work on 5mer-1088 (KAKKK) yielded a Binding affinity of 16 Ru. With 5mer-1089 (KTHHR) the Binding affinity was 29 Ru. For 5mer-1090 (KISGK), the Binding affinity was 31 Ru. For 5mer-1091 (KTEHR), the Binding affinity was 29 Ru. 5mer-1092 (KPMVK) was tested, and the Binding affinity was 12 Ru. For 5mer-1093 (REEDK), the Binding affinity was 32 Ru. With 5mer-1094 (RYSMK) the Binding affinity was 15 Ru. Substance 5mer-1095 (KAEKR) has a Binding affinity of 27 Ru. 5mer-1096 (RPTDK) gave a Binding affinity of 15 Ru. In the case of 5mer-1097 (KPDIR), the Binding affinity is reported as 28 Ru. In the case of 5mer-1098 (RFHGR), the Binding affinity is reported as 31 Ru. Work on 5mer-1099 (RATAR) yielded a Binding affinity of 14 Ru. 5mer-1100 (RPWKR) showed a Binding affinity of 24 Ru. 5mer-1101 (KYKNR) was tested, and the Binding affinity was 11 Ru. 5mer-1102 (KTHKK) was tested, and the Binding affinity was 20 Ru. For 5mer-1103 (KKSHR), the Binding affinity was 18 Ru. 5mer-1104 (RETHK) was tested, and the Binding affinity was 12 Ru. Substance 5mer-1105 (RPTKR) has a Binding affinity of 33 Ru. 5mer-1106 (RYTER) showed a Binding affinity of 18 Ru. Substance 5mer-1107 (RPWHK) has a Binding affinity of 21 Ru. 5mer-1108 (RNPIR) gave a Binding affinity of 19 Ru. In the case of 5mer-1109 (KCHPK), the Binding affinity is reported as 14 Ru. 5mer-1110 (RMHMK) showed a Binding affinity of 13 Ru. For 5mer-1111 (KAEHK), the Binding affinity was 12 Ru.

Same assay, conditions: SPR, peptides tested at 10 μM; 6mer-1 Top sequence (top combinations)
6mer-1-1 (KKVISK) showed a Binding affinity of 122 Ru. Substance 6mer-1-2 (RKQILR) has a Binding affinity of 142 Ru. For 6mer-1-3 (RKRRSR), the Binding affinity was 154 Ru.

Same assay, conditions: SPR; peptides tested at 10 μM; 5mer Bottom sequence
Work on 5mer-1112 (RTTFK) yielded a Binding affinity of 29 Ru. 5mer-1113 (RHMER) was tested, and the Binding affinity was 19 Ru. 5mer-1114 (RKTFR) gave a Binding affinity of 28 Ru. For 5mer-1115 (KEPEK), the Binding affinity was 27 Ru. 5mer-1116 (KECFR) showed a Binding affinity of 24 Ru. With 5mer-1117 (RHKIR) the Binding affinity was 11 Ru. In the case of 5mer-1118 (RMDAR), the Binding affinity is reported as 28 Ru. Work on 5mer-1119 (KMNIK) yielded a Binding affinity of 19 Ru. 5mer-1120 (RPPDR) gave a Binding affinity of 33 Ru. 5mer-1121 (RFKVK) was tested, and the Binding affinity was 29 Ru. For 5mer-1122 (RNTDR), the Binding affinity was 14 Ru. Substance 5mer-1123 (KYEKR) has a Binding affinity of 24 Ru. With 5mer-1124 (KKPVK) the Binding affinity was 30 Ru. With 5mer-1125 (RYPFK) the Binding affinity was 29 Ru. In the case of 5mer-1126 (KPTHK), the Binding affinity is reported as 26 Ru. Substance 5mer-1127 (RIADR) has a Binding affinity of 16 Ru. With 5mer-1128 (REWVR) the Binding affinity was 26 Ru. 5mer-1129 (KFDAR) was tested, and the Binding affinity was 14 Ru. In the case of 5mer-1130 (RFMVR), the Binding affinity is reported as 17 Ru. In the case of 5mer-1131 (KCDGK), the Binding affinity is reported as 14 Ru. 5mer-1132 (KFSMK) showed a Binding affinity of 19 Ru. 5mer-1133 (KCSMK) gave a Binding affinity of 23 Ru. 5mer-1134 (RTCKR) gave a Binding affinity of 26 Ru. Substance 5mer-1135 (RHTAR) has a Binding affinity of 17 Ru. Work on 5mer-1136 (KNSAR) yielded a Binding affinity of 25 Ru. With 5mer-1137 (KEEEK) the Binding affinity was 22 Ru. Substance 5mer-1138 (RENHK) has a Binding affinity of 24 Ru. For 5mer-1139 (KHCWK), the Binding affinity was 28 Ru. With 5mer-1140 (RNEFK) the Binding affinity was 28 Ru. 5mer-1141 (REEVR) was tested, and the Binding affinity was 26 Ru. With 5mer-1142 (KTENK) the Binding affinity was 24 Ru. 5mer-1143 (RATGK) gave a Binding affinity of 19 Ru. In the case of 5mer-1144 (KAKNR), the Binding affinity is reported as 33 Ru. For 5mer-1145 (RMPAK), the Binding affinity was 25 Ru. Substance 5mer-1146 (KPHGR) has a Binding affinity of 23 Ru. 5mer-1147 (RDTGK) was tested, and the Binding affinity was 16 Ru. Substance 5mer-1148 (RDWFR) has a Binding affinity of 24 Ru. Substance 5mer-1149 (KETDR) has a Binding affinity of 25 Ru. For 5mer-1150 (KFTNR), the Binding affinity was 12 Ru. In the case of 5mer-1151 (KTNAR), the Binding affinity is reported as 26 Ru. Work on 5mer-1152 (KENFK) yielded a Binding affinity of 18 Ru. 5mer-1153 (RDAPR) gave a Binding affinity of 27 Ru. 5mer-1154 (KCWVR) gave a Binding affinity of 12 Ru. For 5mer-1155 (RYDMK), the Binding affinity was 25 Ru. With 5mer-1156 (KKMNK) the Binding affinity was 13 Ru. Substance 5mer-1157 (KTSHR) has a Binding affinity of 21 Ru. 5mer-1158 (KYNPR) gave a Binding affinity of 23 Ru. 5mer-1159 (KKWKK) showed a Binding affinity of 17 Ru. 5mer-1160 (KETWR) was tested, and the Binding affinity was 14 Ru. 5mer-1161 (KCHDR) was tested, and the Binding affinity was 21 Ru. In the case of 5mer-1162 (KIKKK), the Binding affinity is reported as 15 Ru. 5mer-1163 (KKSKR) showed a Binding affinity of 12 Ru. 5mer-1164 (RFPWR) gave a Binding affinity of 33 Ru. For 5mer-1165 (RNMNR), the Binding affinity was 21 Ru. In the case of 5mer-1166 (KTHEK), the Binding affinity is reported as 32 Ru. Work on 5mer-1167 (KESWK) yielded a Binding affinity of 12 Ru. 5mer-1168 (RHHWR) showed a Binding affinity of 31 Ru. Work on 5mer-1169 (KDTPK) yielded a Binding affinity of 29 Ru. 5mer-1170 (KHSEK) gave a Binding affinity of 28 Ru. In the case of 5mer-1171 (RCSWK), the Binding affinity is reported as 21 Ru. For 5mer-1172 (KIWWR), the Binding affinity was 25 Ru. 5mer-1173 (KECKR) gave a Binding affinity of 30 Ru. For 5mer-1174 (KYSGK), the Binding affinity was 25 Ru. 5mer-1175 (RDMIR) gave a Binding affinity of 30 Ru. For 5mer-1176 (KIHFK), the Binding affinity was 25 Ru. Substance 5mer-1177 (KIPVR) has a Binding affinity of 20 Ru. With 5mer-1178 (RFDNR) the Binding affinity was 22 Ru. In the case of 5mer-1179 (RMNVR), the Binding affinity is reported as 18 Ru. Substance 5mer-1180 (KETAK) has a Binding affinity of 27 Ru. 5mer-1181 (KKAKR) was tested, and the Binding affinity was 22 Ru. Work on 5mer-1182 (REKWK) yielded a Binding affinity of 15 Ru. Work on 5mer-1183 (RHAPK) yielded a Binding affinity of 13 Ru. 5mer-1184 (RDSMK) showed a Binding affinity of 14 Ru. 5mer-1185 (KPTGR) showed a Binding affinity of 30 Ru. Substance 5mer-1186 (KMWVK) has a Binding affinity of 12 Ru. Work on 5mer-1187 (KHHIR) yielded a Binding affinity of 27 Ru. Substance 5mer-1188 (KPSGK) has a Binding affinity of 30 Ru. Work on 5mer-1189 (RKMDK) yielded a Binding affinity of 11 Ru. With 5mer-1190 (RFSEK) the Binding affinity was 32 Ru. In the case of 5mer-1191 (RMDWK), the Binding affinity is reported as 30 Ru. 5mer-1192 (RYAKK) showed a Binding affinity of 28 Ru. 5mer-1193 (KHWFK) was tested, and the Binding affinity was 22 Ru. Substance 5mer-1194 (RDNGK) has a Binding affinity of 18 Ru. For 5mer-1195 (RHWEK), the Binding affinity was 19 Ru. 5mer-1196 (RICIR) showed a Binding affinity of 24 Ru. With 5mer-1197 (KDDAR) the Binding affinity was 24 Ru. 5mer-1198 (RAADK) gave a Binding affinity of 25 Ru. With 5mer-1199 (KNNNR) the Binding affinity was 29 Ru. With 5mer-1200 (RKNEK) the Binding affinity was 16 Ru.
